According to FireProtDB (doi:10.1021/bi048926x):
Where “and” joins values, the source holds several entries; their conditions need not be identical. Equal entries are not always repeated.

Conditions: Pseudomonas aeruginosa (strain ATCC 15692 / DSM 22644 / CIP 104116 / JCM 14847 / LMG 12228 / 1C / PRS 101 / PAO1), pH 7, Thermal, reversible: No, whole UniProt chain shown

B1: Azurin wild type, P00282 (protein)
chain: MLRKLAAVSLLSLLSAPLLAAECSVDIQGNDQMQFNTNAITVDKSCKQFTVNLSHPGNLPKNVMGHNWVLSTAADMQGVVTDGMASGLDKDYLKPDDSRVIAHTKLIGSGEKDSVTFDVSKLKEGEQYMFFCTFPGHSALMKGTLTLK
Tm (Absorbance, Phosphate 10 mM): 78 °C
unfolding enthalpy (calorimetric) (DSC, Potassium phosphate 100 mM): 141 kcal/mol and 130 kcal/mol and 136 kcal/mol
